Data reported in a protein production outcome set (Wang et al. 2014).

Assay: label from the status in PepcDB records

Sequence	protein production
MSYLLRREEVVDVAGLQAMLEETPGKAAQAILAAAGQGVVEAQLLLGQILLDGRGIQQDATVARRWFGIAAQGGSAMAHNMLGRCLEHGWGGEVNLVQAAVHYARAADSGLDWGLYNLGNLLATGRGVPANQVQALMCYEKAAQLGHAKSMNLYGRYLEQGIATAPSPARAVRWYRRSAEAGDFRGMFSLALVLVERGQLAEAGQWLEQARVAGNMNFLRAALVTLQDAGPVLMAFAARYAEEIDRREEAGTGEHT	failed
MSYSWKKILIKPESTVVDALRVIDNEALRIALVVNDEQQLLGVVTDGDIRRGLLNNLPLETPVVDIMSRSPITASVNTAKEQLVKLMESKSILAVPLMEENKVVGLETLHHLFEEKTYHNPVFIMAGGFGTRLRPLTDTCPKPMLKIGNKPILETVIRSFIKAGFVNFYISTHYMPEQIQNHFGDGSELGVKISYVHEDSPLGTGGALGLLPDDLPQDLPLIMMNGDVLTKVDFERLLDFHTENQADATMCVREYDYQIPYGVINGKGNKITSMVEKPIQRFFVNAGIYVVSPSVIQSVPKNHHIDMPTLLEQHMNERDNILMFPIHEYWLDIGRMDDFNRAQADIHTLGLDLEHHHHHH	failed
MTAAENIQEQLYPAPIKTVEEGSPAARAGVRPGDVLLRVNGQPVTDVLAYRHQLERGVVTLEVARPHEAPRVMTGVAGTAQDHHRLMLPQPPSLDETLTFTVEWEDPGLDFEEVLFDGIKKCANKCDFCYVHQMPRGFRKSLYIMDDDYRLSFLYGSFVTLTNLTEGDINRILDENLSPLYVSVHTANQDLRQDMMKWWKLKVKDPQAVQIREMIERLESIDLYTQIVLVPERNDRENLDETVEYLSSRPNVISAAVVPIGLTAHRTNLPDVRTFTPEEAQDTLRRLNVWRRKFLAERGTRFIFPSDELYLLAGEPLPTEEEYEGFPMLENGVGMIRDFLTEALPPLPAALPEPRKVILGTGLLFADSLARAIEPLRQIEGLDIEVRAIENKTFGKVTTVAGLLTGRCFRHAVQPGEADLLIVPPTTLRYGTELMIDDTSLGELRRELKMDVRAGGATLGELARVVLEGAQSSGHQFGMSAHAVKDSGRDDVAPSASRAQGGAAPEESLEEDVAESGMHGRGQA	failed
MTAARSAPSPAGAPRPGLRERKKTRTREAIRAATYGLIRQQGYEATTVEQIAERAEVSPSTVLRYFPTREDIVLTDEYDPVMAAELAARPAGEPWSDSLRHVLRKALGLGAGEEAELIRLRTRLLAEVPAVRARMLENMSDTGRMLARAIADRTGLDPDGLEVRIVSMSLVGGLMEVSRYWAEHDHEESLAELVDRALDALENGLPALRESDRESDREGDRGGHREDRREGPRKD	not failed
MTAAVARALTLWGLDGASYELAAQRENEVWKVSDGTRHYALRFHRPAYRSEAELTSELLWVEMLGQAGMQVPQPVRQPDGAVLGRIEGRHVSLLDWLGGRPLGKMGQLAPDLDAEAVGRMIGAQMARMHDLSDRWTPPAGFQRPDWRRSGLLGADPLWGRFWEHPDLDPAQRQLMIATRERALACFEDFAPGADQGLIHADLVVENVLVDHDRVAFIDFDDGAWGYRDFDLATVLVKFIGQPDYDRLRAGLCAGYDARRRVEPGTLDFMLLLRALTYPGWIMSRLDEPGGRQRSARMLDTALRLARDFMEERQR	failed
MTAFRCLITGLTWLAKPGIRRYVWIPLAVNLVLYGLGLWLGIRYFSAFLNWMLPGWLDFLRWLLWPVFAVGFFTVMYFTFSVLANIIGSPFYGVLAERTAELATGRRIRPAGVAGEVGMWSALRSEFRRLAYLGLRIVPLAALFLVPVVNLVAPVLWMLFNAWFMALEYTAYPLEARGYDFDHQRSLLGRFRLGAATFGGTVLLAQTIPLLNVLAAPAAVIGATLYLLELPVEE	failed
MTAHPPRPELQIDIVSDVVCPWCIVGFRQLDQALAATGVLARLRWHPFELNPQMGPEGQNLREHIMEKYGSTPEQSAEARARLTAIGAELGFTFNFTDDSRIVNTFAAHQLLDWAEGQGRQHPLKQALFAAYFTDGRDVSDLSVLLDAVEAAGLDREAAQTALTSGAHQAPVREKQKFWAQHGISGVPSMVFGGKYLLTGAQGADTYAQVIQRCLAEA	not failed
MTAIDGQGKDQVIFVTKEEHETPSTVKQEEEDTNEDPKGKGLILPTGEINWDCPCLGGMASGVCGEQFKSAFTCFHFSQEEVKGSDCLEQFISMQECFHQHPELFPQDNNDLQTADPDQEHSSSISDFTTNKESDSLPTETDEIPTQLPVVS	not failed
